Source: the FLAb antibody collection (doi:10.7554/elife.23156)

B1: scFv; the commonest letter at each place (parent)
chain 1: EVKLDETGGGLVQPGRPMKLSCVASGFTFSDYWMNWVRQSPEKGLEWVAQIRNKPYNYETYYSDSVKGRFTISRDDSKSSVYLQMNNLRVEDMGIYYCTGSYYGMDYWGQGTSVTVS
chain 2: DVVMTQTPLSLPVSLGDQASISCRSSQSLVHSNGNTYLRWYLQKPGQSPKVLIYKVSNRFSGVPDRFSGSGSGTDFTLKISRVEAEDLGVYFCSQSTHVPWTFGGGTKLEIK

Columns and labels:
fluorescein = variants of: B1; experiment: Kd (Tite-Seq); conditions: with fluorescein; format: scFv 4-4-20, heavy + light
[1] = variants of: B1; experiment: yeast surface expression (ratio to wild type); higher = more expressed; conditions: format: scFv 4-4-20, heavy + light

| Kd (fluorescein) [µM] | Variant | yeast surface expression [1] |
| --- | --- | --- |
| ≥ 10 | chain 1 EVKLDETGGGLVQPGRPMKLSCVASGFTFSDYWMNWVRQSPEKGLEWVAQIRNKPYNYETYYSDSVKGRFTISRDDSKSSVYLQMNNLRVEDMGIYYCTFTYYYMDYWGQGTSVTVS chain 2 DVVMTQTPLSLPVSLGDQASISCRSSQSLVHSNGNTYLRWYLQKPGQSPKVLIYKVSNRFSGVPDRFSGSGSGTDFTLKISRVEAEDLGVYFCSQSTHVPWTFGGGTKLEIK [chain 1 G100F S101T G104Y] | 0.437 |
| ≥ 10 | chain 1 EVKLDETGGGLVQPGRPMKLSCVASGFTASPYWMNWVRQSPEKGLEWVAQIRNKPYNYETYYSDSVKGRFTISRDDSKSSVYLQMNNLRVEDMGIYYCTGSYYGMDYWGQGTSVTVS chain 2 DVVMTQTPLSLPVSLGDQASISCRSSQSLVHSNGNTYLRWYLQKPGQSPKVLIYKVSNRFSGVPDRFSGSGSGTDFTLKISRVEAEDLGVYFCSQSTHVPWTFGGGTKLEIK [chain 1 F29A D31P] | 0.922 |
| ≥ 10 | chain 1 EVKLDETGGGLVQPGRPMKLSCVASGFTFNDYWMNCVRQSPEKGLEWVAQIRNKPYNYETYYSDSVKGRFTISRDDSKSSVYLQMNNLRVEDMGIYYCTGSYYGMDYWGQGTSVTVS chain 2 DVVMTQTPLSLPVSLGDQASISCRSSQSLVHSNGNTYLRWYLQKPGQSPKVLIYKVSNRFSGVPDRFSGSGSGTDFTLKISRVEAEDLGVYFCSQSTHVPWTFGGGTKLEIK [chain 1 S30N W36C] | 0.445 |
| 0.0302 | chain 1 EVKLDETGGGLVQPGRPMKLSCVASGFTFSDYWMNWVRQSPEKGLEWVAQIRNKPYNYETYYSDSVKGRFTISRDDSKSSVYLQMNNLRVEDMGIYYCTESSYGMDYIGQGTSVTVS chain 2 DVVMTQTPLSLPVSLGDQASISCRSSQSLVHSNGNTYLRWYLQKPGQSPKVLIYKVSNRFSGVPDRFSGSGSGTDFTLKISRVEAEDLGVYFCSQSTHVPWTFGGGTKLEIK [chain 1 G100E Y102S W108I] | 0.245 |
| ≥ 10 | chain 1 EVKLDETGGGLVQPGRPMKLSCVASGFTFSDYWMNWVRQSPEKGLEWVAQIRNKPYNYETYYSDSVKGRFTISRDDSKSSVYLQMNNLRVEDMGIYYCTGSYEGMDYDGQGTSVTVS chain 2 DVVMTQTPLSLPVSLGDQASISCRSSQSLVHSNGNTYLRWYLQKPGQSPKVLIYKVSNRFSGVPDRFSGSGSGTDFTLKISRVEAEDLGVYFCSQSTHVPWTFGGGTKLEIK [chain 1 Y103E W108D] | 0.473 |
| ≥ 10 | chain 1 EVKLDETGGGLVQPGRPMKLSCVASGFTFSDYWCNWFRQSPEKGLEWVAQIRNKPYNYETYYSDSVKGRFTISRDDSKSSVYLQMNNLRVEDMGIYYCTGSYYGMDYWGQGTSVTVS chain 2 DVVMTQTPLSLPVSLGDQASISCRSSQSLVHSNGNTYLRWYLQKPGQSPKVLIYKVSNRFSGVPDRFSGSGSGTDFTLKISRVEAEDLGVYFCSQSTHVPWTFGGGTKLEIK [chain 1 M34C V37F] | 0.777 |
